The record followed here is PMC5454113.

For assay [1], the target named is activated factor X (FXa) (UniProt P00742). Briefly: enzyme inhibition kinetics (chromogenic substrate); FXa 0.3 nM, TFPI 0–16 nM, S-2765 200 uM, 25 uM phospholipids (DOPC/DOPS/DOPE 60:20:20), 5 mM CaCl2, 25 °C, 60 min; no protein S, no FV; Ki = encounter complex, Ki* = overall dissociation constant.
Assay [2] shares this target. Briefly: enzyme inhibition kinetics (chromogenic substrate); as a1, with 30 nM recombinant FV and 100 nM protein S.
Assay [3] has the same target. Briefly: enzyme inhibition kinetics (chromogenic substrate); as a1, with 30 nM recombinant FV, no protein S.
For assay [4] the target is unchanged. Briefly: enzyme inhibition kinetics (chromogenic substrate); as a1, with 100 nM protein S, no FV.

Sequence of UniProt P00742 (P00742 41-179, chain 1 of 2): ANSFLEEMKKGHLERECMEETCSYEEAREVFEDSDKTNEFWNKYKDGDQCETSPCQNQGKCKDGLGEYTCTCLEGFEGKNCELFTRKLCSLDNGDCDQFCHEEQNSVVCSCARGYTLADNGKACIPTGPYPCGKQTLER
Sequence of UniProt P00742 (P00742 235-488, chain 2 of 2): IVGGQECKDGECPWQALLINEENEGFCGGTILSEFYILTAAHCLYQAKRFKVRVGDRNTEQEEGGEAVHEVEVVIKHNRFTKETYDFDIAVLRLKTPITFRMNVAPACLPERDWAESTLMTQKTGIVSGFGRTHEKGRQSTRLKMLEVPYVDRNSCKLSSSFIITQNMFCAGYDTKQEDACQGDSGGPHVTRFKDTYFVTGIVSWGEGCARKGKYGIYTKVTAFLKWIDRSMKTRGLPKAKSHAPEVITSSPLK

Regarding “TFPI ΔCT (aa 1–249) (domain or fragment)”, the Ki with activated factor X (FXa) [1] amounted to 0.05 nM; with activated factor X (FXa) [2], 0.028 nM; with activated factor X (FXa) [3] it was 0.31 nM; with activated factor X (FXa) [4] it was 0.047 nM. In addition, the Ki of the encounter complex (first step) with activated factor X (FXa) [1] amounted to 5.69 nM; with activated factor X (FXa) [2] it was 1.61 nM; in the assay with activated factor X (FXa) [3], 7.41 nM; with activated factor X (FXa) [4] it was 4.57 nM.

What is called Ki is a measure of affinity in units of concentration, obtained from inhibition or displacement.
